Several values for one entry are separate records, joined by “and”; a condition that tells them apart may be missing. Equal values may be shown once. Read-outs that look alike come from different tables or passages of the source.
Tests used:
human 5T4-His protein [1] = biological target: T1, human 5T4-His protein (human, UniProt Q13641 32-355); test: SPR Biacore, Protein A capture
T1 construct: also called recombinant 5T4 protein (human 5T4-his tag); human 5T4 protein; not shown: His tag
T1 sequence (looked up): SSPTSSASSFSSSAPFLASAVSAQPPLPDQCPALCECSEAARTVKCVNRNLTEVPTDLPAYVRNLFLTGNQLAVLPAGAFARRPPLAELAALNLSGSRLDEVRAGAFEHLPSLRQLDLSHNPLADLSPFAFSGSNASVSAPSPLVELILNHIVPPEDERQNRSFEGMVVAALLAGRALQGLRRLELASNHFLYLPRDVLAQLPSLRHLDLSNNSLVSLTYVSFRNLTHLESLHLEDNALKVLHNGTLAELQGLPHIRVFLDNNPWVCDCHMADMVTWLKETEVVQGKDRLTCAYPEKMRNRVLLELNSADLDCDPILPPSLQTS
Protocol: The binding of the chimeric mAbs from these clones against recombinant 5T4 protein (human 5T4-his tag) was tested with Biacore using a capture method. The mAbs were captured using Protein A chip. A serial dilution of human 5T4-his tag protein was injected over captured antibody for 2-3 mins at a flow rate of 30 μl/min. The antigen was allowed to dissociate for 360-1000 s. All the experiments were carried out on a Biacore T200. Data analysis was carried out using Biacore T200 evaluation software.

human 5T4-His protein [2] = biological target: T1, human 5T4-His protein; test: competitive ELISA, coated human 5T4, vs naptumomab-biotin
human 5T4-His protein [3] = biological target: T1, human 5T4-His protein; test: ELISA, coated antigen
cynomolgus 5T4 protein = biological target: T2, cynomolgus 5T4 protein (cynomolgus monkey, UniProt Q4R8Y9 35-355, limits assumed); test: ELISA, coated antigen
T2 construct: Coated protein in ELISA; the screening step names a cyno 5T4-His protein; also called cyno 5T4; recombinant cyno 5T4-His protein
T2 sequence (looked up): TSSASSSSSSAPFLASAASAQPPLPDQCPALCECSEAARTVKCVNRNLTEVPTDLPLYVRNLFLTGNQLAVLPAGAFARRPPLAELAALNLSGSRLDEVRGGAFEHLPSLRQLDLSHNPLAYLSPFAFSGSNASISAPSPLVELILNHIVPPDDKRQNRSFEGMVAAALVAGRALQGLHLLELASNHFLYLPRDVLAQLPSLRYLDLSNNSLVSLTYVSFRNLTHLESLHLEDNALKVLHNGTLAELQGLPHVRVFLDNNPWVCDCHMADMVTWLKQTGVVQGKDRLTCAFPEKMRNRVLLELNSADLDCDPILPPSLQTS

human 5T4-His protein [4] = biological target: T1, human 5T4-His protein; test: SPR Biacore, Protein A capture; remark: listed apart in the source
Method in brief: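 Humanized 14G12 antibodies captured on a Protein A chip; serial dilutions of human 5T4-His injected for 120 s-180 s at 30 μl/min, with dissociation over 360 s-1000 s on a Biacore T200.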

human 5T4-His protein [5] = biological target: T1, human 5T4-His protein; test: competitive ELISA, coated human 5T4, vs naptumomab-biotin; remark: listed apart in the source
human 5T4-His protein [6] = biological target: T1, human 5T4-His protein; test: ELISA, coated 5T4-His
Method in brief: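 Plates coated overnight at 4° C with 1 μg/ml 5T4-His, blocked with 1% BSA. Antibodies in 4-fold dilutions from 20 nM, 1 h at 37° C; bound antibody detected with anti-human IgG-HRP (30 min, 37° C), TMB development, OD 450 nm.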

human 5T4-His protein [7] = biological target: T1, human 5T4-His protein; test: ELISA, coated human 5T4
Protocol: To evaluate the binding activity of clones, the 286B4 chimeric antibody along with 286B4 humanized mAbs were subjected to ELISA test.
Briefly, microtiter plates were coated with human 5T4-His protein at 1 μg/ml in PBS, 100 μl/well at 4° C. overnight, then blocked with 150 μl/well of 1% BSA. 4-fold dilutions of tested antibodies starting from 20 nM were added to each well and incubated for 1 hour at 37° C. The plates were washed with PBS/Tween and then incubated with Goat Anti-Human IgG-HRP for 30 mins at 37° C. After washing, the plates were developed with TMB substrate and analyzed by spectrophotometer at OD 450 nm. As shown in FIG. 16 and Table 15, most of the humanized clones bound to human 5T4 with high potency.

human 5T4-His protein [8] = biological target: T1, human 5T4-His protein; test: SPR Biacore, Protein A capture; remark: listed apart in the source
Protocol: The binding of the 286B4 humanized antibodies to recombinant 5T4 protein (human 5T4-his tag) was tested with Biacore using a capture method. The mAbs were captured using Protein A chip. A serial dilution of human 5T4-his tag protein was injected over captured antibody for 3 mins at a flow rate of 30 μl/min. The antigen was allowed to dissociate for 280-800 s. All the experiments were carried out on a Biacore T200. Data analysis was carried out using the Biacore T200 evaluation software.

B1: 14G12 chimeric antibody (antibody, V domains shown)
VH: EVQLQQSGPELVKPGASVKISCKASGYAFSSSWMNWVKQRPGKGLEWIGRIYREDGHTNYNGKFKGKATLTADKSSTTAYMQLTSLTSEDSAVYFCANGGAMDYWGQGTSVTVSS
VL: DIQMTQSTSSLSASLGDRVTISCRASQDISNYLNWYQQKPDGTVKLLIYYTSRLHSGVPSRFSGSGSGTDYSLTISNLEQEDIATYFCQQDNTLPWTFGGGTKLEIK
notes: chimeric mAb
B1 showed a Kd (human 5T4-His protein [1]) of 413 pM, a koff (human 5T4-His protein [1]) of 0.000222 s⁻¹ and a kon (human 5T4-His protein [1]) of 538000 M⁻¹ s⁻¹. For the same binder, the “IC50 (read off the curve)” value (human 5T4-His protein [2]) was roughly 4000 pM, the EC50 (human 5T4-His protein [3]) was 190 pM and the EC50 (cynomolgus 5T4 protein) was 170 pM. For the same binder, the Kd (human 5T4-His protein [4]) was 839 pM and 537 pM, the koff (human 5T4-His protein [4]) was 0.000336 s⁻¹ and 0.00033 s⁻¹ and the kon (human 5T4-His protein [4]) was 401000 M⁻¹ s⁻¹ and 615000 M⁻¹ s⁻¹.

B2: 113H5 chimeric antibody (antibody, V domains shown)
VH: DVQLQESGPGLVKPSQSLSLTCSVTGYSITSGYYWNWIRQFPGNKLEWMGYINSDGSNNYNPSLKNRISITRDTSKNQFFLKLNSVTTEDTATYYCAREEYDYWFAYWGQGTLVTVSA
VL: DIVMTQSQKFMSTSVGDRVSVTCKASQNVGTNVAWYQQKPGQSPKALIYSASNRYSGVPDRFTGSGFGTDFTLTISNVQSEDLTEYFCQQYNSYPYTFGGGTNLEIK
notes: chimeric mAb
B2 was tested, and the Kd (human 5T4-His protein [1]) was 552 pM, the koff (human 5T4-His protein [1]) was 0.000192 s⁻¹ and the kon (human 5T4-His protein [1]) was 348000 M⁻¹ s⁻¹. The “IC50 (read off the curve)” value (human 5T4-His protein [5]) was roughly 6000 pM, the EC50 (human 5T4-His protein [3]) was 520 pM and the EC50 (cynomolgus 5T4 protein) was 820 pM.

B3: Hu286B4-10 (antibody, V domains shown)
VH: EVQLQESGPGLVKPSDTLSLTCAVSGYSISNNYYWNWIRQPPGKGLEWIGYITYDGSNNYNPSLKNRITMSRDTSKNQFSLKLSSVTAVDTAVYYCARGGGQLRFDYWGQGTTVTVSS
VL: SIVMTQSPSSLSASVGDRVTITCKASQSVSNEVTWYQQKPGKSPKMLIYYASNRYTGVPDRFSGSGYGTDFTFTISSLQPEDIATYFCQQDYSSPWTFGGGTKVEIK
notes: humanized
With B3 the EC50 (human 5T4-His protein [6]) was 2610 pM, the “EC50 (read off the curve)” value (human 5T4-His protein [7]) was roughly 80 pM and the Kd (human 5T4-His protein [8]) was 1930 pM. The koff (human 5T4-His protein [8]) was 0.000204 s⁻¹ and the kon (human 5T4-His protein [8]) was 106000 M⁻¹ s⁻¹.
